Results as given in paper PMC6684798, “Structural basis for the target specificity of actin histidine methyltransferase SETD3” (Nature Communications, 2019).

Target: T1, SETD3 WT (Homo sapiens, UniProt Q86TU7)
T1 construct: GST (cleaved yes); made in house; host or cells: Escherichia coli BL21(DE3) CodonPlus
T1 sequence (Q86TU7 1-594): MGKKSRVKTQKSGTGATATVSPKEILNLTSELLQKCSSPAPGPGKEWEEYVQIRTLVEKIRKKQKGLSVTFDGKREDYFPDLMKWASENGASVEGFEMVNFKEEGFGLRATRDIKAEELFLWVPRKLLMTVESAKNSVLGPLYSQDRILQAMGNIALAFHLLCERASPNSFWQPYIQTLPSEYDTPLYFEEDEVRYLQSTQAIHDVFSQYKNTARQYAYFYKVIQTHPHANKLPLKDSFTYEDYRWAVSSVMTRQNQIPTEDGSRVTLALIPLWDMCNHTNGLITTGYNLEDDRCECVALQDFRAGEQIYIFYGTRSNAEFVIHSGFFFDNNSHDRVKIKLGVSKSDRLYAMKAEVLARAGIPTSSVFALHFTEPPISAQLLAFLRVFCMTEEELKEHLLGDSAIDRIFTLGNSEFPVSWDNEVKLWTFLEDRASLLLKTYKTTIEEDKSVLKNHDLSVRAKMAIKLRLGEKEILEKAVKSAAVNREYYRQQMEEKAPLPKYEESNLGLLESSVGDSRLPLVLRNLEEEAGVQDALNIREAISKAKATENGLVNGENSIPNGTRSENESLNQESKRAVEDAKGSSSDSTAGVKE
Test: MALDI-TOF analysis of K73(66–88) methylation by SETD3 WT (Fig. 3e)
Assay type: biochemical
Settings: pH 10.5, 37 °C, 3 μM WT, 10 µM peptide, 40 µM SAM
Method: Fig. 3 Kinetics of SETD3 on H73 and K73 peptides. a Comparison of activities of three variants (WT, N255A, and N255V) on H73(66–80) peptide. The assays were performed at room temperature (~22 °C) and pH 8.0 using [WT] = 0.18 μM, [N255A] = 0.18 μM, and [N255V] = 0.72 μM. b Comparison of SETD3 WT activities on two K73 peptides (residues 66–80 and 66–88). The assays were performed at 37 °C and pH 10.5 using [WT] = 3 and 15 μM, respectively, for the long and short peptides. c Comparison of activities of three variants (N255A, N255V, and WT) on K73(66–88) peptide. The assays were performed at 37 °C and pH 10.5 using [N255A] = 90 nM, [N255V] = 0.72 μM and [WT] = 4 μM. Data represent the mean ± SD of N number of independent determinations (N = 3 for the WT and N = 2 for the mutants) performed in duplicate. Source data are provided as a Source Data file. d, e Mass spectrometry analysis of K73(66–88) methylation kinetic showing representative spectra at various time points for N255A variant (panel d) and SETD3 WT enzyme (panel e). […]
Recombinant human SETD3 (pXC2003) was expressed as a GST-fusion[22] in Escherichia coli BL21(DE3) CodonPlus^TM cells (Stratagene). […]
Actin K73 peptide (residues 66–88) was used as a substrate for SETD3 (Fig. 3d, e). […] We note that samples diluted into a 0.1% (v/v) TFA solution in water could not be detected by MALDI-TOF, thus the acetonitrile additive is necessary.

**Q.** For “K73(66–88): K73-containing actin H73K peptide, residues 66–88 (TLKYPIEKGIVTNWDDMEKIWHH; UniProt P60709 66-88, looked up, variant H73K)”, which K73 methylation product (2 h) is on record?
**A.** Its K73 methylation product is “only monomethyl lysine”.

**Q.** What about the K73 methylation product (overnight) of the same substance?
**A.** Its K73 methylation product is “substantial amounts of unmodified and monomethyl substrates remain, along with a small amount of dimethyl and tri-methyl products”.
